Source: the supplement of paper PMC9170038

Test system: K4 kissing-loop RNA reporter
Assay: apparent KD of K4 kissing-loop reporter; higher = weaker reporter binding
Conditions: Eterna round: R107; input ligand: none
Protocol: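 RNA-MaP round R107: designed RNA switches with theophylline, tryptophan, arginine or FMN aptamers are transcribed on-chip within common flanks. They are titrated with a labelled K4 kissing-loop RNA reporter in RNA-MaP buffer (100 mM Tris pH 7.5, 80 mM KCl, 4 mM MgCl2), without ligand or with the indicated ligand. Median apparent KD per design.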
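Note: bound reporter read as fluorescence of individual clusters on recovered sequencing chips by microscopy, with normalized cluster intensities fitted with a binding model.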

Compared with “AGUGAUGUUUUUUUUAAGAGUGAUGUUUUUCGAGGACCGGUACGGCCGCCACUCGAGUGAUGAGUGCGUUGUUGUGAUGUUUAGU [#11 K4 Tryptophan A Exclusion]”, “CAUUCGAAAUGCAGUGAUGUUGCAACCGAUACCAGUAUCGAAAGAUACCCUUGGCAGCGGAAAACCGCUACGUAUUUUUUGAAUG [Ex Theophylline A K4 26]” is 1.7-fold lower in “apparent KD of K4 kissing-loop reporter” value: 473 nM for the first, 276 nM for the second.

“AGACUUCACCGAAGGAGCGACGUAGCCUAGUGAUGUUAGGCGCGAGAGAAAUCUCGUAUACGUCAGGUAGGUCGCGGUGAAGUCA [Omei KL Arginine B SS C v4]” and “AAUGAGGACACUUGCAACAGUCCUCGAAUACGAGGACCGGUACGGCCGCCACUCGAUAACUUGCAGUGAUGUUGCAAGUAAGAAU [(T)''-(K)'-(T)'-(T1)-(T2)-(K1)-(K2)_Design2]” are within 1.5-fold of each other in “apparent KD of K4 kissing-loop reporter” value: 152 nM for the first, 207 nM for the second.

Compared with “AUUUUAUUAACUGAUACCAGACUUAAUGAUUUGUAAAUUACUAGUGAUGUUAGUGAUUCUGUCCCUUGGCAGCAGUAUUUAUUUA [JR_ExcTheophyB_Sub013]”, “AACACUCUGGGAGUGAUGUUCUCAAAUAACCGAGGACCGGUACGGCCGCCACUCGGAAAAGAGUGAGUCCUACGAAAAGUAGGAC [Omei inspired 3]” is 3-fold higher in “apparent KD of K4 kissing-loop reporter” value: 79.2 nM for the first, 235 nM for the second.

Going from “AUAGAAAAGUGGCACCCUCACUAAAACAGUCGAGGACCGGUACGGCCGCCACUCGCGCGCUUUAGUGAUGUUAAAGCUAGGCGGA” to “GGACGACAGUCGGCCGCCACUCACAGCCGCCAGUGAUGUUGGAUUGUAGCGGAGUGAUGUUUCGCGAGGACCGGGACUGCAGUCC [Same State Tryptophan B GF 15]”, the “apparent KD of K4 kissing-loop reporter” value rises from 265 nM to 455 nM (1.7-fold).

First: AAGCCAGUGAUGUUGGCAAAAUAAACUGAAGGAGCGCGUGAAAACGCAGGUAGGUCGCAGAACCUUGCCAACUAACACGAAAGUG [Ex Arginine A K4 19]
Second: UGCGCUGUGUACUGAAAUGUCCUGCGGGAUACCAGAGUCUUUUUAUUCCCUUGGCAGCUUGAGUGAUGUUUGAUGCCGUUCUUGU [frrgmullin]
The “apparent KD of K4 kissing-loop reporter” value of the first is 2.3-fold lower: 305 nM for the first, 710 nM for the second.

Going from “GCGGUGUUAUGCCCGAGGGUAUAGUUGCCAAAGGAUAUGAUUGUUGUCAGAAGGUUGCGCUUGAUCAGUGAUGUUGGUCUCCAAC [theeternabot_sameState_KL_FMN_A_12]” to “UGACAUUGCUCAGAUACCAGACCUGAGGAUCACCCUGGUGCCAAACGUACAAUAAUAAAUGUCCCUUGGCAGCUGAGCAAUGUCU [TheoBX 14]”, the “apparent KD of K4 kissing-loop reporter” value falls from 373 nM to 44.9 nM (8.3-fold).

Going from “AUUUUCAUUUUAUUAUAUAACUUUUCAGAAGGAGCGUGGAAGUUCACAGGUAGGUCGCUGAAUAUUGGACUAGUGAUGUUAGUUA [JR_Nu_SSArginiA_Sub022]” to “GUUACGCAUGGAAGGAGCGCUCUCCGGUUGAUCGACACAGUGAUGUUGUGGUUCUACCGUAAGCAGGUAGGUCGCCAUGUGUAAC [Ex Arginine B K4 14]”, the “apparent KD of K4 kissing-loop reporter” value rises from 230 nM to 936 nM (4.1-fold).

Going from “AAAUCGUUCAGAAGGAGCGUGGAUUAUUCUUAAAUAUUUAUUACGAGUGAUGUUCGUAAUUCACAGGUAGGUCGCUGAUCGAUAA [JR_ExcArginiB_Sub003]” to “GGUGCUGUCUGUGCCGCCCUCCUCGUUCCUCGAGGACCGGUACGGCCGCCACUCGAGUGAUGUUCGGGUAGCGAUCCCUGCUAGC [Bdazzled - #17 Exc. Tryptophan A]”, the “apparent KD of K4 kissing-loop reporter” value rises from 106 nM to 207 nM (2-fold).

“AAACAGCACUGGGAGUGAUGUUCUCAGUGACGAGGACCGGUACGGCCGCCACUCGCGAGAGAACUAGUCUAGACUUGACUGCAUA [Excl Tryptophan A V15]” and “GGAUAGGACAGAGGAUAUGGUAGUGAUGUUACCAACAGCCUACUGUCAAUAAAGACGGUUGGCUGACCAGAAGGCUGUCCUAUCG [Mod of Eli's FmnBX 26 v1]” are the same in “apparent KD of K4 kissing-loop reporter” value: 145 nM for the first, 145 nM for the second.

“ACCAUCAAAGAUGGCCAGGACUCAACUGAUACCAGAGUGGAGACACUCCCUUGGCAGCAGGUGAGUGAUGUUCACGAGUCCUGGA [Omel KL Theo A SS B v9]” and “AGGUUUUGAUCAGGAUAUGCAUUGACGAUGAGAAUAUAGUGAUGUUAUAUACUACGAAUUAGUAAAGUAGAAGGGAUUGAGGUUU [SSFMNB.aB]” are within 1.5-fold of each other in “apparent KD of K4 kissing-loop reporter” value: 1140 nM for the first, 820 nM for the second.

With “UUUUAAAUGUCUGAUACCAGAGAAAAUUUAUGUAGUGAUGUUAUAUACAAAUUAAAUAAGCUCCCUUGGCAGCAGUAUUAAUUUU [AstrosExc-TheB#9]” the “apparent KD of K4 kissing-loop reporter” value was 846 nM.

Same assay, conditions: Eterna round: R107; input ligand: theophylline 20 uM

First: GUAUCGCUAGGAGGAUAUUUCAAAUAAUAAAUAAAUGGAUAUUCGGAGUGAUGUUCCGAUUUACGGAAAGAAGGCCUAGUGAUAC [FMN B 2]
Second: AAACAUCACUGGGAGUGAUGUUCUCAGUGACGAGGACCGGUACGGCCGCCACUCGCGAGAGAUAUAAUUAAGUAAUGACAUCAUU [Excl Tryptophan A V6]
The “apparent KD of K4 kissing-loop reporter” value of the first is 2.5-fold lower: 137 nM for the first, 341 nM for the second.

“ACCUAGUAGACAGGAUAUCACCAUGACAGUGAUGUUGUCAUGCUCGAUUUGAGGAAACUCAGAUCGUGAGAAGGGUCUAACGACU [FMN B SS t7]” and “CCUAUCUCAUACGAUACCAGUGAAUUUAUAUUUAUUAGCAGUGAUGUUGCAUUCCAAGUACACCCUUGGCAGCGUAUGGGAUAGG [Ex Theophylline B K4 22]” are within 1.5-fold of each other in “apparent KD of K4 kissing-loop reporter” value: 146 nM for the first, 172 nM for the second.

Compared with “UCCUAGGCUCGAAAGAGCCUAGGAUUGACUCAGGAUAUCCGGAAACGGAGAAGGGAGUCACUAGUGAUGUUAGGGAUUCCCUAUU”, “GGAUAGGACAGAGGAUAUCUCUGAGGCAAGAAAACUUGUCUCAAAAGAGAUGACUCAGUGAUGUUGAGAGAAGGCUGUCCUAUCG [FmnBX 8 - #SwitchBubble #StaticStem]” is 1.7-fold higher in “apparent KD of K4 kissing-loop reporter” value: 85.9 nM for the first, 147 nM for the second.

Compared with “GGGCCUAUUGAUGCUGGAGCAAUUCUGGAAGGAGCGCUCAAAGGAGCAGGUAGGUCGCCAGUAUGCAAGGGCAGUGAUGUUGCCC [Ersoarxe]”, “UGGAUGUAGUGAUGUUAUAUAGAGAGUGAUACCAGUUUAGAGAAGAACCCUUGGCAGCAUAGAAGAGUAUCAUUGGAGAAGAAUG [ExTheophyl.Ar]” is 2.3-fold higher in “apparent KD of K4 kissing-loop reporter” value: 145 nM for the first, 334 nM for the second.

Going from “UUAGCCUAGCCAUAGUGAUGUUGUGGAAUACGAGGACCGGUACGGCCGCCACUCGCUCGACGGUGAUGACAUCAACGACCUUUAU [theeternabot_sameState_KL_Trp_A_38]” to “AGUACGGACGCGGCCGCCACUCAGGAGAAGAAGGUAGUGAUGUUGCUUAUGGAGAGAUCAAUCAAGAGGACCGGGUGCCGUGCAA [#07 K4 Tryptophan B Same State]”, the “apparent KD of K4 kissing-loop reporter” value rises from 314 nM to 534 nM (1.7-fold).

“UGGCGGCAAGGGUUAUUGGAAAGUAUUCGUCGAGGACCGGUACGGCCGCCACUCGAACACCAGUGAUGUUGGUCUGGUUUAAGCU [Exclusion Tryptophan A GF 22]” and “UCGCUCGAGUAAGGAUAUCAAUAUCAAAGGUCGUAGUGAUGUUAUACCAGGCCAAUUUGGCGGUAGUGAGAAGGUACUAGCAGUU [theeternabot_sameState_KL_FMN_B_38]” are within 1.5-fold of each other in “apparent KD of K4 kissing-loop reporter” value: 636 nM for the first, 461 nM for the second.

First: GGAUAGGAUAGAGGAUAUGGUUUAUGCAAGAAUAACUUAUCGUGUAAAUCCAUAGGGAGUGAUGUUCCAGAAGGCUGUCCUAUCG [MatMod 12 - Jieux - Exclusion - FMN B]
Second: GGAGGCCAGGCCUGCGAAGUGAUGUUUUGACGAGGACCGGUACGGCCGCCACUCGAAUGUUCUAUCAUCGUACGAACUUCUGCGU [theeternabot_exclusion_KL_Trp_A_26]
The “apparent KD of K4 kissing-loop reporter” value of the first is 2.1-fold lower: 246 nM for the first, 527 nM for the second.

First: AGUGUUAGGUUAGAUACCAGCCGUUCGUGAAUAGUCUUCGAACCGCCAGUGAUGUUGGCAGGCCCUUGGCAGCUAACAGAACAGA [Lagelare]
Second: UGUAAGCGCGUAGAUACCAGCAGACGAGUGAUGUUCGAGAGAUUAAGGAAAAGAAAGUGAUGCCCUUGGCAGCUAAUCAUAAGCG [whbob_Ex_Theo_B_sa95]
The “apparent KD of K4 kissing-loop reporter” value of the first is 2-fold lower: 159 nM for the first, 323 nM for the second.

“GAGUCGGCACAAGGAUAUAGGUGUAGUGAUGUUAUGUCUCCUUGACUCACUCGUUACCCUCAACGUCUAGAAGGUGUGAAUGCAG [theeternabot_exclusion_KL_FMN_B_46]” and “CGCGCGCGCCGCAAGGCGCGCGCGAACGAUACCAGUAUAUAAGAAUACCCUUGGCAGCGUAAGAAAGCUAUAGUGAUGUUGUAGA [#19 K4 Theophylline A Same State]” are within 1.5-fold of each other in “apparent KD of K4 kissing-loop reporter” value: 229 nM for the first, 265 nM for the second.

Compared with “AUUUUUUUAUCAGGAUAUUAGUGUUGGUUUGUUUUGUUAGUGAUGUUGAUAUUUGUUUUAUGUAUUUAAGAAGGGAUUUAGAUGU [viuupullin]”, “AGGAGCGUGGGAUGAAAAUCGCACGCUCCUCGAGGACCGGUACGGCCGCCACUCGCUCGCGCCGAGUGAUGUUCGGCCGGCGAAC [#2 Same State - Tryptophan A Attempt #12 (HarryS)]” is 1.7-fold lower in “apparent KD of K4 kissing-loop reporter” value: 371 nM for the first, 217 nM for the second.

“AGCAGUCACUCGAAAAACCAUCGAAGAUGGCGAGGACCGGUACGGCCGCCACUCGGAGUGAUGUUCCGAAGACUGCAAAAUAAAA [#SwitchBubble 15]” and “AGUGAUGUUUUUUUUAAGAGUGAUGUUUUUCGAGGACCGGUACGGCCGCCACUCGAGUGAUGAGUGCGUUGUUGUGAUGUUUAGU [#11 K4 Tryptophan A Exclusion]” are within 1.5-fold of each other in “apparent KD of K4 kissing-loop reporter” value: 313 nM for the first, 413 nM for the second.

Going from “CAUUCGAAAUGCAGUGAUGUUGCAACCGAUACCAGUAUCGAAAGAUACCCUUGGCAGCGGAAAACCGCUACGUAUUUUUUGAAUG [Ex Theophylline A K4 26]” to “AGACUUCACCGAAGGAGCGACGUAGCCUAGUGAUGUUAGGCGCGAGAGAAAUCUCGUAUACGUCAGGUAGGUCGCGGUGAAGUCA [Omei KL Arginine B SS C v4]”, the “apparent KD of K4 kissing-loop reporter” value falls from 243 nM to 126 nM (1.9-fold).

Compared with “AAUGAGGACACUUGCAACAGUCCUCGAAUACGAGGACCGGUACGGCCGCCACUCGAUAACUUGCAGUGAUGUUGCAAGUAAGAAU [(T)''-(K)'-(T)'-(T1)-(T2)-(K1)-(K2)_Design2]”, “AUUUUAUUAACUGAUACCAGACUUAAUGAUUUGUAAAUUACUAGUGAUGUUAGUGAUUCUGUCCCUUGGCAGCAGUAUUUAUUUA [JR_ExcTheophyB_Sub013]” is 2.9-fold lower in “apparent KD of K4 kissing-loop reporter” value: 258 nM for the first, 87.6 nM for the second.

“AACACUCUGGGAGUGAUGUUCUCAAAUAACCGAGGACCGGUACGGCCGCCACUCGGAAAAGAGUGAGUCCUACGAAAAGUAGGAC [Omei inspired 3]” and “AUAGAAAAGUGGCACCCUCACUAAAACAGUCGAGGACCGGUACGGCCGCCACUCGCGCGCUUUAGUGAUGUUAAAGCUAGGCGGA” are within 1.5-fold of each other in “apparent KD of K4 kissing-loop reporter” value: 264 nM for the first, 259 nM for the second.

“GGACGACAGUCGGCCGCCACUCACAGCCGCCAGUGAUGUUGGAUUGUAGCGGAGUGAUGUUUCGCGAGGACCGGGACUGCAGUCC [Same State Tryptophan B GF 15]” and “AAGCCAGUGAUGUUGGCAAAAUAAACUGAAGGAGCGCGUGAAAACGCAGGUAGGUCGCAGAACCUUGCCAACUAACACGAAAGUG [Ex Arginine A K4 19]” are within 1.5-fold of each other in “apparent KD of K4 kissing-loop reporter” value: 413 nM for the first, 387 nM for the second.

For “UGCGCUGUGUACUGAAAUGUCCUGCGGGAUACCAGAGUCUUUUUAUUCCCUUGGCAGCUUGAGUGAUGUUUGAUGCCGUUCUUGU [frrgmullin]”, the “apparent KD of K4 kissing-loop reporter” value was 738 nM.
